One data set deals with CpGSTD1 (Culex pipiens, UniProt H9M8E3). The data set can be described thus: spectrophotometric enzyme kinetics. The format is biochemical.
The subject of data set [1] is O=[N+]([O-])c1ccc(Cl)c(Cl)c1. Kind of data set: spectrophotometric enzyme kinetics. The format is biochemical, Culex pipiens. To be noted: 30.0 °C.
Substrate in data set [2]: Cc1cc(=O)oc2ccc(OC(=O)[C@H]3[C@@H](/C=C(\Cl)C(F)(F)F)C3(C)C)cc12
The data set can be described thus: fluorescent enzyme kinetics. The format is biochemical, Culex pipiens. The conditions noted are these: GSH; 30.0 °C.

Substrate in data set [3]: Cc1cc(=O)oc2ccc(OC(=O)[C@H]3[C@@H](C=C(Cl)Cl)C3(C)C)cc12
Kind of data set: fluorescent enzyme kinetics. Format: biochemical, Culex pipiens. To be noted: GSH; 30.0 °C.

The record followed here is paper PMC3489985 (Analytical biochemistry, 2012).

`O=[N+]([O-])c1ccc(Cl)c([N+](=O)[O-])c1` [CDNB, 1-chloro-2,4-dinitrobenzene]: at CpGSTD1, the Michaelis constant (Km) came out at 240 ± 18 µM.

With CpGSTD1 (Culex pipiens), in data set [1], the Michaelis-Menten constant (Km) is 691 ± 106 µM, the Vmax is 2.32 ± 0.152 µmol/min/mg, the turnover number (kcat) stood at 0.92 s⁻¹ and the catalytic efficiency (kcat/Km) was 1300 M⁻¹ s⁻¹.

B1: CpGSTD1 (Culex pipiens) (protein)
chain: MDFYYLPGSAPCRAVQMTAAAVGVELNLKLTNLMAGEHMKPEFLKLNPQHTIPTLVDNGFSLWESRAIQIYLVEKYGKDDSLYPKDPQKRALVNQRLFFDMGVFYQRFGDYWYPQIFAKQPANADNEKKMQEAVAFLNTFLEGHQYAAGDQLTIADLSLAASAATYEVAGFDFSKYPNVQAWLERCKKNAPGYDLNQAGADEFNAKFLGGK
B1: in data set [2], the Km stood at 10.0 ± 0.7 µM, the maximum rate (Vmax) amounted to 0.487 µmol/min/mg, the catalytic constant (kcat) was 0.19 s⁻¹ and the kcat/Km was 19000 M⁻¹ s⁻¹. Moreover, in data set [3], the Km was 9.0 ± 0.8 µM, the maximal velocity (Vmax) was determined as 0.298 µmol/min/mg, the catalytic constant (kcat) was 0.12 s⁻¹ and the kcat/Km worked out at 13000 M⁻¹ s⁻¹.
